Assay results: publication PMC7891125 (Cell, 2021)

Columns and labels:
[1] = target: T1, SARS-CoV-2 spike on intact virus (SARS-CoV-2/human/AUS/VIC01/2020) (SARS-CoV-2, isolate human/AUS/VIC01/2020); assay: cell-based or functional assay
[2] = target: T1, SARS-CoV-2 spike on intact virus …; assay: ELISA; whole virus ELISA: SARS-CoV-2 virus captured on plates coated with mouse anti-spike mAb31, serial dilutions of IgG or Fab, ALP anti-human IgG (Fab-specific); Kd = concentration at half-maximal binding by nonlinear regression; settings: one partner purified
[3] = target: T2, His-tagged SARS-CoV-2 RBD (Severe acute respiratory syndrome …, UniProt P0DTC2); assay: BLI; settings: both partners purified
[4] = target: T2, His-tagged SARS-CoV-2 RBD; assay: BLI; competition assay, Octet RED96e, His-tagged RBD on Anti-HIS (HIS2) biosensors, saturating antibody 15 ug/ml then competing IgG 5 ug/ml; 10 mM HEPES pH 7.4, 150 mM NaCl; settings: both partners purified
[5] = target: SARS-CoV-2 spike on intact virus (SARS-CoV-2/human/AUS/VIC01/2020) (SARS-CoV-2, isolate …, strain); assay: cell-based or functional assay
[6] = target: His-tagged RBD for structural analysis (SARS-CoV-2 Wuhan-Hu-1 (MN908947), UniProt P0DTC2, treated with endoglycosidase H1; 'glycosylated RBD' was used for the complex with Fab S309 and Fab384); assay: crystal structure; settings: both partners purified
[7] = target: His-tagged SARS-CoV-2 RBD (SARS-CoV-2 Wuhan-Hu-1 (MN908947), UniProt P0DTC2); assay: BLI; Octet RED 96e; anti-RBD IgGs immobilised on AR2G biosensors, RBD as the analyte in serial dilutions; 1:1 global fitting model; settings: both partners purified

B1: Fab 88 (Fab, V domains shown)
VH: QLQLQESGPGLVKPSQTLSLTCTVSGGSISSGSYNWTWIRQPAGKGLEWIGRIYNSGSTNYNPSLKSRVTISVDTSKNQLSLKVRSVTAADTAVYYCARHCSGGTCYPKYYYGMDVWGQGTTVTVSS
VL: QSALTQPPSVSEAPRQRVTISCSGSSSNIGNNAVNWYQQFPGKAPKLLIYYDDLLPSGVSDRFSGSKSGTSASLAISGVQSEDEADYYCAAWDDSLNVVVFGGGTKLTVL
notes: also called 88 Fab
[1]
  Table S7: Neutralization IC50 (nM), FRNT of authentic SARS-CoV-2, Fab: 6.95 nM
[2]
  Kd: 1.21 nM

B2: Fab 150 (Fab, V domains shown)
VH: QVQLVESGGGLIQPGGSLRLSCAASGVTVSSNYMSWVRQAPGKGLEWVSIIYSGGTTYYADSVKGRFTISRDSSMNTLYLQMNSLRAEDTAVYYCARDLMVYGIDVWGQGTTVTVSS
VL: EIVMTQSPSSLSASVGDRVTITCRASQGISSYLAWYQQKPGKAPKLLIYAASTLQSGVPSRFSGSGSGTDFTLTISSLQPEDFATYYCQQLDSYPPGYTFGQGTKVDIK
[1]
  Table S7: Neutralization IC50 (nM), FRNT of authentic SARS-CoV-2, Fab: 0.61 nM
[2]
  Kd: 0.75 nM

B3: Fab 158 (Fab, V domains shown)
VH: EVQLLESGGDLIQPGGSLRLSCAASGVTVSSNYMSWVRQAPGKGLEWVSIIYPGGSTFYADSVKGRFTISRDNSKNTLYLQMHSLRAEDTAVYYCARDLGSGDMDVWGKGTTVTVSS
VL: DIVMTQSPSFLSASVGDRVTITCRASQGISSYLAWYQQKPGKAPKLLIQAASTLQSGVPSRFSGSGSGTEFTLTISSLQPEDFATYYCQQLNSYRYTFGQGTKVEIK
[1]
  Table S7: Neutralization IC50 (nM), FRNT of authentic SARS-CoV-2, Fab: 4.12 nM
[3]
  Kd: 0.7 nM
  koff: 8.4e-05 s⁻¹
  kon: 120000 M⁻¹ s⁻¹
[2]
  Kd: 3.73 nM

B4: chimeric mAb 253H165L (IgG) (antibody, V domains shown)
VH: not shown
VL: DIVMTQSPGTLSLSPGERATLSCRASQSVRSSYLAWYQQKPGQAPRLLIYGASRRGTGIPDRFSGSGSGTDFTLTISRLEPEDFAVYYCQQYGSSPWTFGQGTKVEIK
[1]
  Table S7: Neutralization IC50 (nM), FRNT of authentic SARS-CoV-2: 0.03 nM
[2]
  Kd: 0.09 nM

B5: chimeric Fab 253H165L (Fab, V domains shown)
VH: not shown
VL: B4 VL
[1]
  Table S7: Neutralization IC50 (nM), FRNT of authentic SARS-CoV-2, Fab: 5.22 nM
[2]
  Kd: 5.02 nM

B6: Fab 316 (Fab, V domains shown)
VH: not shown
VL: QAVLTQPPSASGSPGQSVTISCTGTSSDVGGYNYVSWYQQHPGKAPKLMIYEVSKRPSGVPDRFSGSKSGNTASLTVSGLQAEDEADYYCSSYAGSNHWVFGGGTKLTVL
[1]
  Table S7: Neutralization IC50 (nM), FRNT of authentic SARS-CoV-2, Fab: 27.6 nM
[3]
  koff: 0.00071 s⁻¹
  kon: 350000 M⁻¹ s⁻¹
[2]
  Kd: 8.76 nM

B7: mAb 75 (IgG) (antibody, V domains shown)
VH: QVQLVESGGGVVQPGRSLRLSCAASGFTFNNYPLHWVRQAPGKGPEWVAVISQDGGNKYYVDSVKGRFTISRDNSKNTLYLQMNNLRAEDTALYYCARDVVVVVAARNHYYNGMDVWGQGTTVTVSS
VL: DIQLTQSPSSVSASVGDRVTITCRASQGISSWLAWYQQKPGKAPKLLIYAVSSLQSGVPSRFSGSGSGTDFTLTISSLQPEDFATYYCQQAKSFPFTFGPGTKVEIK
notes: IgG1
[4]
  binding result: binds

B8: mAb 384 (IgG) (antibody, V domains shown)
VH: EVQLVESGGGLVKPGESLRLSCAASGFTFSDYYMTWIRQAPGKGLEWVSYIRSSGHTIYYADSVKGRFTISRDNAKNSLYLQMNSLRVEDTAVYYCARGGVLRFLEWPLNAFDIWGQGTMVTVSS
VL: DIQLTQSPSSLSASVGDRVTITCRASQGISNYLAWYQQKPGKVPKLLIYAASTLQSGVPSRFSGSGSGTDFTLTISSLQPEDVATYYCQKYNNALGTFGQGTKVEIK
notes: IgG1
[4]
  binding result: binds

B9: mAb 159 (antibody, V domains shown)
VH: EVQLVESGGGVVQPGRSLRLSCAASGFTFSSYGMHWVRQAPGKGLEWVALISYDGGNRYYADSVKGRFTISRDNSKNTLYLQMNRLRAEDTAMYYCAKDRDDGWDWYYFMDVWGKGTTVTVSS
VL: DIQLTQSPGTLSLSPGERATLSCRASQSISGNYLAWYQHKPGQAPRLLIYGASTRATGIPDRFSGSGSGTDFTLTISRLEPEDFAVYYCQQYGSSYTFGQGTKVEIK
[5]
  FRNT, neutralisation of authentic SARS-CoV-2 on Vero cells, IC50: 5 ng/mL

B10: Strep-tagged Fab 158 (Fab, V domains shown)
VH: B3 VH
VL: B3 VL
notes: also called Fab58 (as printed in the crystallization paragraph); source: HEK293T, transient transfection, purified (Strep-Tactin)
[6]
  binding result: binds

B11: Fab384 (Fab, V domains shown)
VH: B8 VH
VL: B8 VL
[6]
  binding result: binds

B12: Fab75 (Fab, V domains shown)
VH: B7 VH
VL: B7 VL
notes: also called mAb 75
[6]
  binding result: binds

B13: mAb 316, de-glycosylated (antibody, V domains shown)
VH: not shown
VL: B6 VL
[7]
  Kd: 1 nM

B14: mAb 316 (antibody, V domains shown)
VH: not shown
VL: B6 VL
[7]
  Kd: 2 nM
